Experimental data from PMC6827314, “An aldo-keto reductase with 2-keto-L-gulonate reductase activity functions in L-tartaric acid biosynthesis from vitamin C in Vitis vinifera” (The Journal of Biological Chemistry, 2019).

Assays:
[1] = substrate: CC(=O)C(=O)O; assay: purified protein; format: biochemical, Vitis vinifera; conditions: 1 mM NADPH, 100 mM HEPES pH 7.5, 37 °C
[2] = substrate: O=C(O)C(=O)CO; assay: purified protein; format: biochemical, Vitis vinifera; conditions: 1 mM NADPH, 100 mM HEPES pH 7.5, 37 °C
[3] = substrate: O=C(O)C(=O)[C@@H](O)[C@H](O)[C@@H](O)CO; assay: purified protein; format: biochemical, Vitis vinifera; conditions: 1 mM NADPH, 100 mM HEPES pH 7.5, 37 °C
[4] = substrate: O=CC(=O)O; assay: purified protein; format: biochemical, Vitis vinifera; conditions: 1 mM NADPH, 100 mM HEPES pH 7.5, 37 °C
[5] = biological target: the molecule itself; assay: crystal structure; ligand-free Vv2KGR, space group P2(1), four subunits (chains A-D) in the asymmetric unit, 1.58 Å; crystals from 1.26 M ammonium sulfate, 100 mM sodium acetate/acetic acid pH 4.5, 200 mM NaCl, 16 °C; oligomeric interface analysed with PDBePISA

B1: Vitis vinifera 2-keto-L-gulonate reductase (Vv2KGR) (enzyme, UniProt A5CAL1 1-313, looked up)
chain: MESIGVLLTCPMNPYLEQELDKRFKLFRFWDFPSANDLFREHSNSIRAVVGNSFIGADAQMIEALPKMEIVSSFSVGLDKIDLVRCKEKGIRVTNTPDVLTEDVADLALALILATLRRICESDRYVRSGSWKKGDFKLTTKFTGKSVGIIGLGRIGSAIAKRAEGFSCPISYHSRTEKPGTNYKYYPSVVELASNCQILVVACALTPETRHIINREVINALGPKGVVINIGRGLHVDEPELVSALVEGRLGGAGLDVFENEPNVPEELLAMDNVVLLPHVGSGTVETRKDMADLVLGNLEAHFLNKPLLTPVV
notes: Vv2KGR, Vitis vinifera cv; The forward primer carries an ATG of the NdeI site directly before the gene's own ATG; also called aldo-keto reductase; apo-Vv2KGR; source: E. coli BL21(DE3) pLysS-T1, pET14b, purified (HisTrap FF Crude, HiTrap Q HP, dialysis); not shown: His tag (from the vector pET14b)
B1 showed a Km [1] of 1.371 mM, a Km [2] of 0.096 mM and a Vmax [2] of 6.29 µmol/min/mg. The kcat [2] was 6.97 s⁻¹, the Km [3] was 0.700 mM and the Vmax [3] was 7.54 µmol/min/mg. For the same protein, the kcat [3] was 4.18 s⁻¹, the Km [4] was 0.044 mM and the Vmax [4] was 13.8 µmol/min/mg. The kcat [4] was 38.3 s⁻¹ and the “stoichiometry N” value [5] was 2.
